Data published in patent US20130122013A1 (Eli Lilly, published 2013).

T1: human ferroportin 1 (human, UniProt Q9NP59 1-571)
T1 sequence: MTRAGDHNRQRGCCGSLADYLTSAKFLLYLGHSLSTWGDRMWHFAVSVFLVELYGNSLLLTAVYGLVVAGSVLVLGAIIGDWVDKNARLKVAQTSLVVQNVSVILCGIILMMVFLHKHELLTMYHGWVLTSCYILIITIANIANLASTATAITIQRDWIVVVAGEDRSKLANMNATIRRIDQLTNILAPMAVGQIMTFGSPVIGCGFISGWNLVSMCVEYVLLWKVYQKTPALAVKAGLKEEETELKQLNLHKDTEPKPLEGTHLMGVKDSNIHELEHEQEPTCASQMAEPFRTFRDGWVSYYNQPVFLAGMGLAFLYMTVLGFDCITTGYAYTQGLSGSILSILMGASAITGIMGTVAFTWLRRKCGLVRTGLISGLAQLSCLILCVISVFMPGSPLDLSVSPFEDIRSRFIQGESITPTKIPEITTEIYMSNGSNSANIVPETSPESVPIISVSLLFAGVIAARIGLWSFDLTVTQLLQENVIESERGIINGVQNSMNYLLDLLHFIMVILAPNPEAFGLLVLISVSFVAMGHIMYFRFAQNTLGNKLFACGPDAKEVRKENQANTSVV

T2: human FPN1 C-terminally fused with GFP (human, UniProt Q9NP59 1-571, GFP reporter fused to the C-terminus ("FPN1 is C-terminally fused with GFP"). It is left out because the patent gives no letters for it.)
T2 sequence: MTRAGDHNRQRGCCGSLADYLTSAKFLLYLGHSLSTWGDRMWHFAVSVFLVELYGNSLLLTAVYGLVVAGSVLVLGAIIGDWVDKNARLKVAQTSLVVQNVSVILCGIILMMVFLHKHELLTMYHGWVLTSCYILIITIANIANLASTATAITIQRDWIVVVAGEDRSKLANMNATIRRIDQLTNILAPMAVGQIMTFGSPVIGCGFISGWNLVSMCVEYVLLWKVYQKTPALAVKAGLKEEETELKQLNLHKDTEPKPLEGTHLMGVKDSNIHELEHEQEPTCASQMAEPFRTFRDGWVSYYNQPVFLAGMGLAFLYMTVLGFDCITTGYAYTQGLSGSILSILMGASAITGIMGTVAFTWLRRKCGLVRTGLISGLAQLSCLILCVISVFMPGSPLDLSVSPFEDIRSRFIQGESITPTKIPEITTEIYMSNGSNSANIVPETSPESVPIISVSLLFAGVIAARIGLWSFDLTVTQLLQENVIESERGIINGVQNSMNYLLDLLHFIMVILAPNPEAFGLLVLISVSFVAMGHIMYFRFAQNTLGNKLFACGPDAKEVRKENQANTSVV

T3: rat ferroportin (rat, UniProt Q923U9 1-570, limits assumed)
T3 sequence (looked up): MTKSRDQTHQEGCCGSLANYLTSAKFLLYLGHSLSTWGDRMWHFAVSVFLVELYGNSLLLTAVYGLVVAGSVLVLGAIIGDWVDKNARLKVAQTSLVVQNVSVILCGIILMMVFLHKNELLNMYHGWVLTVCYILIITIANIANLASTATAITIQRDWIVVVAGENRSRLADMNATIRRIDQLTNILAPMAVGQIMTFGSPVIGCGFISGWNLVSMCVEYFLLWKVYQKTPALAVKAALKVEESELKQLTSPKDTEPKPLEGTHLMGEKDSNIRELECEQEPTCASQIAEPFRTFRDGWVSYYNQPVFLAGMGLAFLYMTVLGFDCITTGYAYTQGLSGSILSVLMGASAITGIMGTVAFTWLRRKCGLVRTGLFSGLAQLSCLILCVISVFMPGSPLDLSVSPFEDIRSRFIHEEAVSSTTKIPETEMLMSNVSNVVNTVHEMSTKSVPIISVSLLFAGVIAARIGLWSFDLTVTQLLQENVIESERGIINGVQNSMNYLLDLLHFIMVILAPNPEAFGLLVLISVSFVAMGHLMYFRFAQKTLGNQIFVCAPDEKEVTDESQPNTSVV


What was measured:
human ferroportin 1 [1] = target: T1, human ferroportin 1; experiment: cell-based or functional assay
[2] = target: T2, human FPN1 C-terminally fused with GFP; experiment: inhibition of binding of 30 nM biotinylated hepcidin to FPN-GFP/293 cells, ELISA of lysate; control antibody at 1.2 uM; mean
[3] = target: T2, human FPN1 C-terminally fused with GFP; experiment: inhibition of binding of 30 nM biotinylated hepcidin to FPN-GFP/293 cells, ELISA of lysate; control antibody at 6.0 uM; mean
[4] = target: T2, human FPN1 C-terminally fused with GFP; experiment: inhibition of binding of 30 nM biotinylated hepcidin to FPN-GFP/293 cells, ELISA of lysate; control antibody at 0.24 uM; mean
[5] = target: T2, human FPN1 C-terminally fused with GFP; experiment: inhibition of binding of 30 nM biotinylated hepcidin to FPN-GFP/293 cells, ELISA of lysate; control antibody at 0.048 uM; mean
human ferroportin 1 [6] = target: T1, human ferroportin 1; experiment: inhibition of binding of 30 nM biotinylated hepcidin to FPN/293 cells, ELISA of lysate; control antibody at 125 nM; mean
human ferroportin 1 [7] = target: T1, human ferroportin 1; experiment: inhibition of binding of 30 nM biotinylated hepcidin to FPN/293 cells, ELISA of lysate; control antibody at 500 nM; mean
human ferroportin 1 [8] = target: T1, human ferroportin 1; experiment: inhibition of binding of 30 nM biotinylated hepcidin to FPN/293 cells, ELISA of lysate; control antibody at 7.8 nM; mean
human ferroportin 1 [9] = target: T1, human ferroportin 1; experiment: inhibition of binding of 30 nM biotinylated hepcidin to FPN/293 cells, ELISA of lysate; control antibody at 2000 nM; mean
human ferroportin 1 [10] = target: T1, human ferroportin 1; experiment: inhibition of binding of 30 nM biotinylated hepcidin to FPN/293 cells, ELISA of lysate; control antibody at 31.25 nM; mean
[11] = target: T2, human FPN1 C-terminally fused with GFP; experiment: cell-based or functional assay
rat ferroportin = target: T3, rat ferroportin; experiment: not described; told in the pharmacokinetics example
human ferroportin 1 [12] = target: T1, human ferroportin 1; experiment: inhibition of binding of 30 nM biotinylated hepcidin to FPN/293 cells, ELISA of lysate; antibody at 125 nM; mean
human ferroportin 1 [13] = target: T1, human ferroportin 1; experiment: inhibition of binding of 30 nM biotinylated hepcidin to FPN/293 cells, ELISA of lysate; antibody at 500 nM; mean
human ferroportin 1 [14] = target: T1, human ferroportin 1; experiment: inhibition of binding of 30 nM biotinylated hepcidin to FPN/293 cells, ELISA of lysate; antibody at 7.8 nM; mean
human ferroportin 1 [15] = target: T1, human ferroportin 1; experiment: inhibition of binding of 30 nM biotinylated hepcidin to FPN/293 cells, ELISA of lysate; antibody at 2000 nM; mean
human ferroportin 1 [16] = target: T1, human ferroportin 1; experiment: inhibition of binding of 30 nM biotinylated hepcidin to FPN/293 cells, ELISA of lysate; antibody at 31.25 nM; mean

| Molecule | Absolute IC50 of inhibition of hepcidin-25-induced internalization and degradation of FPN1-GFP [11] | Relative IC50 of inhibition of hepcidin-25-induced internalization and degradation of FPN1-GFP [11] | Top % Inhibition of hepcidin-25-induced internalization and degradation of FPN1-GFP [11] | EC50 of inhibition of mature hepcidin induced increase in cellular ferritin, Caco-2 cells (human ferroportin 1 [1]) | Percentage inhibition of mature hepcidin induced increase in cellular ferritin, Caco-2 cells, Mab at 2.22E-7 M (human ferroportin 1 [1]) | Percentage inhibition of mature hepcidin induced increase in cellular ferritin, Caco-2 cells, Mab at 2.47E-8 M (human ferroportin 1 [1]) | Percentage inhibition of mature hepcidin induced increase in cellular ferritin, Caco-2 cells, Mab at 2.7E-9 M (human ferroportin 1 [1]) | Percentage inhibition of mature hepcidin induced increase in cellular ferritin, Caco-2 cells, Mab at 3.0E-10 M (human ferroportin 1 [1]) | Percentage inhibition of mature hepcidin induced increase in cellular ferritin, Caco-2 cells, Mab at 6.67E-7 M (human ferroportin 1 [1]) | Percentage inhibition of mature hepcidin induced increase in cellular ferritin, Caco-2 cells, Mab at 7.4E-8 M (human ferroportin 1 [1]) | Percentage inhibition of mature hepcidin induced increase in cellular ferritin, Caco-2 cells, Mab at 8.0E-9 M (human ferroportin 1 [1]) | Percentage inhibition of mature hepcidin induced increase in cellular ferritin, Caco-2 cells, Mab at 9.0E-10 M (human ferroportin 1 [1]) | binding result (rat ferroportin) | % Inhibition (human ferroportin 1 [12]) | % Inhibition (human ferroportin 1 [13]) | % Inhibition (human ferroportin 1 [14]) | % Inhibition (human ferroportin 1 [15]) | % Inhibition (human ferroportin 1 [16]) | also measured |
| --- | --- | --- | --- | --- | --- | --- | --- | --- | --- | --- | --- | --- | --- | --- | --- | --- | --- | --- | --- |
| Mouse IgG1, a negative control (antibody) | – | – | – | – | – | – | – | – | – | – | – | – | – | – | – | – | – | – | % Inhibition of hepcidin-induced ferritin increase in Caco-2 cells, 6.25 µg/mL (human ferroportin 1 [1]): 0%; % Inhibition of hepcidin-induced ferritin increase in Caco-2 cells, 12.5 µg/mL (human ferroportin 1 [1]): 0%; % Inhibition of hepcidin-induced ferritin increase in Caco-2 cells, 25 µg/mL (human ferroportin 1 [1]): 7.2%; % Inhibition of hepcidin-induced ferritin increase in Caco-2 cells, 50 µg/mL (human ferroportin 1 [1]): 0%; % Inhibition of hepcidin-induced ferritin increase in Caco-2 cells, 100 µg/mL (human ferroportin 1 [1]): 3.5%; % Inhibition of hepcidin-induced ferritin increase in Caco-2 cells, 200 µg/mL (human ferroportin 1 [1]): 11.6%; Ferritin (ng)/protein (µg) in hepcidin-treated Caco-2 cells, 6.25 µg/mL (ng ferritin/µg protein) (human ferroportin 1 [1]): 10.4; Ferritin (ng)/protein (µg) in hepcidin-treated Caco-2 cells, 12.5 µg/mL (ng ferritin/µg protein) (human ferroportin 1 [1]): 10; Ferritin (ng)/protein (µg) in hepcidin-treated Caco-2 cells, 25 µg/mL (ng ferritin/µg protein) (human ferroportin 1 [1]): 9.6; Ferritin (ng)/protein (µg) in hepcidin-treated Caco-2 cells, 50 µg/mL (ng ferritin/µg protein) (human ferroportin 1 [1]): 10.1; Ferritin (ng)/protein (µg) in hepcidin-treated Caco-2 cells, 100 µg/mL (ng ferritin/µg protein) (human ferroportin 1 [1]): 9.78; Ferritin (ng)/protein (µg) in hepcidin-treated Caco-2 cells, 200 µg/mL (ng ferritin/µg protein) (human ferroportin 1 [1]): 9.4; % Inhibition [2]: 0.5%; % Inhibition [3]: -3.4%; % Inhibition [4]: -4%; % Inhibition [5]: -11% |
| control IgG (antibody) | – | – | – | – | – | – | – | – | – | – | – | – | – | – | – | – | – | – | % Inhibition (human ferroportin 1 [6]): 1.9%; % Inhibition (human ferroportin 1 [7]): -0.7%; % Inhibition (human ferroportin 1 [8]): 2.5%; % Inhibition (human ferroportin 1 [9]): -2.5%; % Inhibition (human ferroportin 1 [10]): 7.9% |
| Mab 4A10-3 (antibody, human IgG4 S228P, kappa, F234A L235A, V domains shown) VH: QVQLVQSGAEVKKPGSSVKVSCKASGYAFTSFLIEWVRQAPGQGLEWMGTSNPRTGGRKYKEKFRGRVTITADKSTSTAYMELSSLRSEDTAVYYCAREFFDYWGQGTTVTVSS VL: DIQMTQSPSSLSASVGDRVTITCRASKSISKYTAWYQQKPGKAPKLLIYAGSKLHWGVPSRFSGSGSGTDFTLTISSLQPEDFATYYCQQHNEYPYTFGGGTKVEIKR | 5.7 nM | 4.7 nM | 85.9% | 37 nM | 59.6% | 36.2% | 24.9% | 12% | 61.9% | 45.6% | 28% | 19.5% | no binding | 59.3% | 84.9% | 5.4% | 95.3% | 13.4% | – |
| Mab Combi11 (antibody, human IgG4 S228P, kappa, F234A L235A, V domains shown) VH: QVQLVQSGAEVKKPGSSVKVSCKASGYAFTSFLIEWVRQAPGQGLEWMGTSNPRTGRTKYKSKFRGRVTITADKSTSTAYMELSSLRSEDTAVYYCAREFFDYWGQGTTVTVSS VL: DIQMTQSPSSLSASVGDRVTITCRASKSISKYTAWYQQKPGKAPKLLIYAGSKRHWGVPSRFSGSGSGTDFTLTISSLQPEDFATYYCQQHNEYPYTFGGGTKVEIKR | 3.8 nM | 3.7 nM | 92.6% | 28 nM | 69.3% | 45.3% | 34.8% | 14.2% | 75.2% | 61.1% | 31.6% | 23.3% | no binding | 88.4% | 81.6% | 18.7% | 79.9% | 32.1% | – |
